Results as given in US20260209365A1, “ANTI-COMMON GAMMA CHAIN PROTEINS AND COMPOSITIONS OF MATTER” (SINOMAB BIOSCIENCE LIMITED, priority 2023, published 2026).

How the values were obtained:
Format in all cases: cell-based, human
Settings in all cases: ScFv 10 μg/ml
[1] = system: IL-15 induced STAT5 phosphorylation; experiment: Inhibition of IL-15 induced STAT phosphorylation in KHYG-1 NK cell line, flow cytometry
Excerpt: (§1) Cells were harvested and stained with FITC conjugated anti-pSTAT6, PE conjugated anti-pSTAT3 or APC con jugated anti-pSTAT5 antibodies for flow cytometry analyses. In some embodiments, the purified ScFv could block the IL-4 induced STAT6 phosphorylation in cell culture (e.g., Ramos). In some embodiments, the purified ScFv could block the IL-7 induced STAT5 phosphorylation in cell culture (e.g., HPB-ALL). In some embodiments, the purified ScFv could block the IL-9 induced STAT3 phosphorylation in cell culture (e.g., Jurkat). In some embodiments, the purified ScFv could block the IL-15 induced STAT5 phosphorylation in cell culture (e.g., KHYG-1). In some embodiments, the purified ScFv could block the IL-21 induced STAT3 phosphorylation in cell culture (e.g., Ramos).
(§2) Flow cytometry was employed to measure the percentage of p-STAT expressing cells after cytokine induction and anti-γc ScFv treatment. KHYG-1 (Creative Bioarray, Shirley, NY 11967, USA) was starved in IL-2 free RPMI1640 (ATCC modification, ThermoFisher Scientific, Waltham, MA, USA) with 10% FBS (ThermoFisher Scientific) for 2 days. Ramos, HPB-ALL and Jurkat cell lines were used directly without starvation. Cells were replenished with fresh RPMI1640 medium and pretreated with anti-γc ScFv (10 μg/mL) for an hour. After treatment with TL-4 (10 ng/ml, Sino Biological), IL-7 (50 ng/ml, Sino Biological), IL-9 (50 ng/ml, Sino Biological), IL-15 (10 ng/ml, Sino Biological) or IL-21 (10 ng/ml, Sino Biological) for 15 min, cells were fixed in 4% paraformaldehyde (PFA, Sigma, St. Louis, Missouri, USA) for 10 min, permeabilized in 0.1% Triton X-100 (Sigma) for 10 min and then stained with FITC conjugated anti-pSTAT6, PE conjugated anti-pSTAT3 or APC con jugated anti-pSTAT5 (all diluted in 1:100, Biolegend, San Diego, California, USA) for 30 min at 37° C. Percentage of p-STAT expressing cells was measured by BD FACSLyric™ Clinical Flow Cytometry System (BD Biosciences, New Jersey, USA). Data were analyzed by Flowjo (version 10, BD).
(§3) Different cell lines were used for testing. KHYG-1 refers to the NK cell line harvested from the peripheral blood of a person with aggressive NK cell leukemia. This cell line could respond to IL-2 and IL-15 stimulation in-vitro [Yamasaki et al., Leuk Res., […]; 28 (10): 1023-31]. Ramos is a human Burkitts Lymphoma cell line (CRL-1596™) and could be used as a model for IL-4 and IL-21 studies [Hui et al., Front Immunol., 2022; 13: 919854]. Jurkat is a human T lymphoblast cell line (Clone E6-1, TIB-152™) and is widely used in the T cell studies of IL-9 function. HPB-ALL is a T cell leukemia model established from the peripheral blood of a child with ALL and thymoma at diagnosis in 1973 and could be used for IL-7 functional studies.

[2] = system: IL-4 induced STAT6 phosphorylation; experiment: Inhibition of IL-4 induced STAT phosphorylation in Ramos B cell line, flow cytometry
Excerpt: as §1, §2, §3

[3] = system: IL-21 induced STAT3 phosphorylation; experiment: Inhibition of IL-21 induced STAT phosphorylation in Ramos B cell line, flow cytometry
Excerpt: as §1, §2, §3

[4] = system: IL-7 induced STAT5 phosphorylation; experiment: Inhibition of IL-7 induced STAT5 phosphorylation in HPB-ALL T cell line, flow cytometry
Excerpt: as §1, §2, §3

[5] = system: IL-9 induced STAT3 phosphorylation; experiment: Inhibition of IL-9 induced STAT3 phosphorylation in Jurkat T cell line, flow cytometry
Excerpt: as §1, §2, §3

Row | Molecule | p-STAT5 inhibition (%) [1] [%] | p-STAT6 inhibition (%) [2] [%] | p-STAT3 inhibition (%) [3] [%] | p-STAT5 inhibition (%) [4] [%] | p-STAT3 inhibition (%) [5] [%]
1 | SM-05J: anti-γc antibody; CDR SEQ ID NO: 148, 150, 152, 156, 158, 160 (antibody, V domains shown, left off: another chain or arm of the molecule; small tags and cut ends) VH: EVQLQQSGPELVKPGASVKISCKTSGYTFTEYTMHWVKQSHGKSLEWIGGIDPYNGGITYNQRFKGKATLTVDKSSSTAYMELRSLTSEDSAVYYCARRRLYYGYALDYWGQGTSVTVSS VL: DVVMTQTPLSLPVSLGDQASISCRSSQSIVHSNGNTYLEWYLQKPGQSPKLLIYKVSNRFSGVPDRFSGSGSGTDFTLKISRVEAEDLGVYYCFQGSHVPFTFGSGTKLEIK | 42.71 | 82.22 | 75.77 | 98.10 | 100
2 | SM-05L: anti-γc antibody; CDR SEQ ID NO: 180, 182, 184, 188, 190, 192 (antibody, V domains shown, left off: another chain or arm of the molecule; small tags and cut ends) VH: EVQLQQSGPELVKPGASVKISCKTSGYTFTEYTMHWVKQSHGKSLEWIGGIDPNSGGATYNQKFKGKATLTVDKSSSTAYMEVRSLTSEDSAVYYCARRRLYYGYAMDYWGQGTSVTVSS VL: DVLMTQTPLSLPVSLGGQASISCRSSQNIVHSNGNTYLEWYLQKPGQSPKLLIYKVSNRFSGVPDRFSGSGSGTDFTLKISRVEAEDLGVYFCSQSTHVPFAFGSGTKLEIK | 49.10 | 73.54 | 26.03 | 100 | 92.36
3 | SM-05B: anti-γc antibody; CDR SEQ ID NO: 20, 22, 24, 28, 30, 32 (antibody, V domains shown, left off: another chain or arm of the molecule; small tags and cut ends) VH: QVQLQQSGPELVKPGASVKIFCKTSGYTFTEYTMHWVKQSHGESLEWIGGIDPNTGGATYNQKFKGKATLTADKSSSTAYMELRSLTSEDSAVYYCARRRRYYGYALDYWGQGTSVTVSS VL: DVLMTQTPLSLPVSLGDQASISCRSSQSIVHSNGNTYLEWYLQKPGQSPKLLIYKVSNRFSGVPDRFSGSGSGTDFTLKISRVEAEDLGVYFCSQSTHVPWTFGGGTKLEIK | 47.06 | 76.95 | 13.85 | 94.50 | 82.64
4 | SM-05C: anti-γc antibody; CDR SEQ ID NO: 36, 38, 40, 44, 46, 48 (antibody, V domains shown, left off: another chain or arm of the molecule; small tags and cut ends) VH: QVQLQQSGPELVKPGASVKIFCKTSGYTFTEYTMHWVKQSHGESLEWIGGIDPNTGGATYNQKFKGKATLTADKSSSTAYMELRSLTSEDSAVYYCARRRRYYGYAMDYWGQGTSVTVSS VL: DVVMTQTPLSLPVSLGDQASISCRSSQSLVHSNGNTYLHWYLQKPGQSPKLLIYKVSNRFSGVPDRFSGSGSGTDFTLKISRVEAEDLGIYYCFQDSHVPFTFGSGTKLEIK | 46.04 | 45.99 | 29.10 | 100 | 97.92
5 | SM-05D: anti-γc antibody; CDR SEQ ID NO: 52, 54, 56, 60, 62, 64 (antibody, V domains shown, left off: another chain or arm of the molecule; small tags and cut ends) VH: QVQLQQSGPELVKPGASVKISCKTSGYTFTEYTMHWVKQSHGKSLEWIGGIDPYNGGVTYNQRFKGKATLTVDKSSSTAYMEFRSLTSEDSAVYYCARRRLYYGNALDYWGQGTSVTVSS VL: DIVMTQTPLSLPVSLGDQASISCRSSQSIVHRNGNTYLEWYLQKPGQSPKLLIYKVSNRFSGVPDRFSGSGSGTDFTLKISRVEAEDLGVYYCFQGSHVPFTFGSGTKLEIK | 48.59 | 63.77 | 30.00 | 99.80 | 100
